Patent US20260125472A1 (HEFEI TG IMMUNOPHARMA, published 2026)

Key:
CD3E&D protein [1] = biological target: T1, CD3E&D protein (UniProt P04234 22-105); assay: ELISA, coated CD3E&D protein, OD450 [panel A]
T1 construct: Purchased from Acro; also called CD3 E&D antigens; CD3E&D antigen protein
Description: In this example, the binding properties of the parental antibody Cross3 and the CD3 affinity-reduced antibody (the production method and the amino acid sequences of the heavy and light chains were shown in Example 1) were detected by ELISA. The CD3E&D protein was coated onto a 96-well plate by the inventors, and the strength of the signal after the addition of the antibody was used to determine the binding properties of the antibody and CD3E&D.
CD3E&D protein (purchased from Acro) was diluted to 2 μg/ml with PBS buffer, added to a 96-well plate at a volume of 100 μL/well, and placed at 4° C. overnight. The PBS buffer in the 96-well plate was aspirated, and the plate was washed 6 times with PBST (pH 7.2 PBS containing 0.1% Tween 20) buffer. Then, 200 μL/well PBS/10% BSA was added and incubated at 37° C. for 2 h for blocking. The blocking solution was removed, and the plate was washed six times with PBST. Then, the to-be-tested antibodies serially diluted with PBST/0.05% BSA, Cross3, Cross303, Cross307, Cross308, Cross309, Cross310, Cross311, Cross312, Cross313, Cross314, Cross316, Cross317, Cross318, Cross323, Cross325, Cross326, and control IgG1 (purchased from Bio-Tech) were added at 100 μL/well, and incubated at 37° C. for 1 h. The reaction system was removed, and the plate was washed 6 times with PBST. Then, the cells were incubated at 37° C. for 1 h with HRP (horseradish peroxidase)-labeled anti-human secondary antibody (Fab specific) (purchased from Sigma) serially diluted with PBST/0.05% BSA at 100 μL/well. The plate was washed six times with PBST, TMB (tetramethylbenzidine) was added at 80 μL/well and incubated at room temperature for 3 min. 4 M sulfuric acid was added at 80 μL/well to terminate the reaction. The absorbance was read at 450 nm using a microplate reader.

CD3E&D protein [2] = biological target: T1, CD3E&D protein; assay: SPR (Biacore 8K), antibody on CM5 chip, CD3 E&D antigen as analyte; set-up: Fold change: reference not given here
Description: In a Biacore 8K (Cytiva) system, the antibody was diluted to 10 μg/mL in HBS-EP running buffer and coupled to a CM5 chip (Cytiva) at a flow rate of 10 μL/min.

CD3 on CD8 T cells = biological target: T2, CD3 on CD8 T cells (Homo sapiens (Human), UniProt P07766 23-207); assay: flow cytometry, CD8 T cells in PBMCs, binding ratio % [panel A]
T2 construct: Native CD3 complex on CD8 T cells among PBMCs; also called T cells (PBMCs gated with anti-human CD8 antibody)
T2 sequence (P07766 23-207 limits assumed): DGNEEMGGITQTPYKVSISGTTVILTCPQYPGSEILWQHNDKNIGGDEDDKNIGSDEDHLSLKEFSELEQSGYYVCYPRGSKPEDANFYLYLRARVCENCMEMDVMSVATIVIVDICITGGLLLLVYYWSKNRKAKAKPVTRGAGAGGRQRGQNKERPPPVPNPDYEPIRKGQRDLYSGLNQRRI
Description: PBMCs were diluted with PBS to 2×10⁶/mL and added to a 1.5 ml EP tube at a volume of 100 μL/tube, 10 μL/tube of goat serum was added thereto and incubated at 4° C. for 30 min for blocking. […] 1 mL of PBS was added to the EP tube, followed by centrifugation at 3500 rpm for 5 min at 4° C. The supernatant was discarded, and the cells were washed again with PBS. After centrifugation, the supernatant was discarded, and the cells were resuspended with 100 μl/tube PBS. 1 μl/tube Alexa-647-labeled goat anti-human secondary antibody (purchased from Jackson lab) and 0.5 μl/tube PerCP-Cy5.5-labeled anti-human CD8 antibody were added and incubated at 4° C. in the dark for 30 min. The cells were washed twice with PBS, and the supernatant was discarded after centrifugation. The cells were resuspended with […] of PBS and assayed using the flow cytometry.

[3] = biological target: T3, PDL1 on A-375 melanoma cells, HCT-15 colorectal cancer cells and A549 lung cancer cells (UniProt Q9NZQ7 19-290, limits assumed); assay: flow cytometry, A549 cells, MFI [panel B]
T3 construct: whole, on cells
T3 sequence (Q9NZQ7 19-290 limits assumed): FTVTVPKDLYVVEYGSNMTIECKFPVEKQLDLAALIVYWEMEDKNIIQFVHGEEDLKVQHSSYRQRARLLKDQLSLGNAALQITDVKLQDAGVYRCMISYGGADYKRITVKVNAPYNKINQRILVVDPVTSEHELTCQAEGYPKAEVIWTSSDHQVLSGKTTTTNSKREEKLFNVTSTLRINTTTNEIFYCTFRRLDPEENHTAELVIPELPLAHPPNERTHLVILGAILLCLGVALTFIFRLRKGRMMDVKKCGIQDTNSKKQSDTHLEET
Description: (2) The tumor cells were diluted to 2×10⁶/ml with PBS and added to a 1.5 ml EP tube at a volume of 100 μl/tube, and goat serum was added thereto at 10 μl/tube. The cells were blocked at 4° C. for 30 min. The serially diluted bispecific antibodies, Cross3×Trop2, Cross303×Trop2, Cross307×Trop2, Cross308×Trop2, Cross309×Trop2, Cross310×Trop2, Cross311×Trop2, Cross312×Trop2, Cross313×Trop2, Cross314×Trop2, Cross316×Trop2, Cross317×Trop2, Cross318×Trop2, Cross323×Trop2, Cross325×Trop2, Cross326×Trop2, and Cross3×PDL1, Cross303×PDL1, Cross307×PDL1, Cross308×PDL1, Cross309×PDL1, Cross310×PDL1, Cross311×PDL1, Cross312×PDL1, Cross313×PDL1, Cross314×PDL1, Cross316×PDL1, Cross317×PDL1, Cross318×PDL1, Cross323×PDL1, Cross325×PDL1, Cross326×PDL1, and control hIgG1LALA (purchased from Bio-Tech) were added and incubated at 4° C. for 30 min. 1 ml of PBS was added to the EP tube, followed by centrifugation at 3500 rpm for 5 min at 4° C. The supernatant was discarded, and the cells were washed again with PBS. After centrifugation, the supernatant was completely discarded, and the cells were resuspended with PBS at 100 μl/tube. Alexa-647-labeled goat anti-human IgG secondary antibody (purchased from Jackson lab) was added at 1 μl/tube and incubated at 4° C. in the dark for 30 min. The cells were washed twice with PBS, and the supernatant was completely discarded after centrifugation. The cells were resuspended with PBS at 200 μl/tube and assay was performed using the flow cytometry.

PDL1 protein = biological target: T4, PDL1 protein (UniProt Q9NZQ7 19-238); assay: ELISA, coated PDL1 protein, OD450 [panel B]
T4 construct: Bought recombinant protein
T4 sequence (Q9NZQ7 19-238 limits assumed): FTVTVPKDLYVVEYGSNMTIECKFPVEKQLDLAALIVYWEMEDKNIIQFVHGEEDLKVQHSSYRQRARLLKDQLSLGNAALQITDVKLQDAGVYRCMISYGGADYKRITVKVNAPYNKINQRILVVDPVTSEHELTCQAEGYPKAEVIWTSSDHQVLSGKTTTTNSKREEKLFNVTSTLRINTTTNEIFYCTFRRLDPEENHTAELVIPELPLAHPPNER
Description: (3) PDL1 protein (purchased from Acro) was diluted to 2 μg/ml with PBS buffer, added to a 96-well plate at a volume of 100 μL/well, and placed at 4° C. overnight. The PBS buffer in the 96-well plate was aspirated, and the plate was washed 6 times with PBST (pH 7.2 PBS containing 0.10% Tween 20) buffer. Then, PBS/10% BSA was added at 200 μL/well and incubated at 37° C. for 2 h for blocking. The blocking solution was removed, and the plate was washed six times with PBST. Then, the to-be-tested bispecific antibodies serially diluted with PBST/0.05% BSA, Cross3×PDL1, Cross303×PDL1, Cross307×PDL1, Cross308×PDL1, Cross309×PDL1, Cross310×PDL1, Cross311×PDL1, Cross312×PDL1, Cross313×PDL1, Cross314×PDL1, Cross316×PDL1, Cross317×PDL1, Cross318×PDL1, Cross323×PDL1, Cross325×PDL1, Cross326×PDL1, and control IgG1LALA (purchased from Bio-Tech) were added at 100 μL/well, and incubated at 37° C. for 1 h. The reaction system was removed, and the plate was washed 6 times with PBST. Then, the cells were incubated at 37° C. for 1 h with HRP (horseradish peroxidase)-labeled anti-human secondary antibody (Fab specific) (purchased from Sigma) serially diluted with PBST/0.05% BSA at 100 μL/well. After the plate was washed six times with PBST, TMB (tetramethylbenzidine) was added at 80 μL/well and incubated at room temperature for 3 min. 4 M sulfuric acid was added at 80 μL/well to terminate the reaction. The absorbance was read at 450 nm using a microplate reader.

T1 sequence (chain, as listed by the source limits assumed, chain 1 of 2): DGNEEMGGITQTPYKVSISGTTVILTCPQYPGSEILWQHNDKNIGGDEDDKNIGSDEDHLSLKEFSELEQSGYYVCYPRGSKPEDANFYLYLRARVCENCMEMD
T1 sequence (P04234 22-105 limits assumed, chain 2 of 2): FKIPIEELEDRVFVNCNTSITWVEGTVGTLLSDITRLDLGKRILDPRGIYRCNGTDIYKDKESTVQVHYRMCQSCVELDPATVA

| Binder | EC50 (read off the curve) (CD3E&D protein [1]) | Fold change (CD3E&D protein [2]) | Kd (CD3E&D protein [2]) | koff (CD3E&D protein [2]) | kon (CD3E&D protein [2]) | EC50 (read off the curve) (CD3 on CD8 T cells) | EC50 (read off the curve) [3] | EC50 (read off the curve) (PDL1 protein) |
| --- | --- | --- | --- | --- | --- | --- | --- | --- |
| Cross307 (antibody, human IgG1, kappa, V domains shown) VH: EVQLLESGGGLVQPGGSLKLSCAASGFTFNTYAMNWVRQAPGKGLEWVARIRSKYNNYATYYADSVKDRFTISRDDSKNTAYLQMNNLKTEDTAVYYCVRHGNFGNEYVSWFAYWGQGTLVTVSS VL: ELVVTQEPSLTVSPGGTVTLTCRSSTGAVTTSNYANWVQQKPGQAPRGLIGGTNKRAPGTPARFSGSLLGGKAALTLSGVQPEDEAEYYCALWYSNLWVFGGGTKLTVLR | ~0.03 mg/L | 21 | 3.47 nM | 0.00473 s⁻¹ | 1.36e+06 M⁻¹ s⁻¹ |  |  |  |
| Cross308 (antibody, human IgG1, kappa, V domains shown) VH: EVQLLESGGGLVQPGGSLKLSCAASGFTFNTYAMNWVRQAPGKGLEWVARIRSKYNNYATYYADSVKDRFTISRDDSKNTAYLQMNNLKTEDTAVYYCVRHGNFGNPYVSWFAYWGQGTLVTVSS VL: ELVVTQEPSLTVSPGGTVTLTCRSSTGAVTTSNYANWVQQKPGQAPRGLIGGTNKRAPGTPARFSGSLLGGKAALTLSGVQPEDEAEYYCALWYSNLWVFGGGTKLTVLR | ~0.03 mg/L | 11.8 | 1.95 nM | 0.0209 s⁻¹ | 1.07e+07 M⁻¹ s⁻¹ |  |  |  |
| Cross309 (antibody, human IgG1, kappa, V domains shown) VH: EVQLLESGGGLVQPGGSLKLSCAASGFTFNTYAMNWVRQAPGKGLEWVARIRSKYNNYATYYADSVKDRFTISRDDSKNTAYLQMNNLKTEDTAVYYCVRHGNFGNVYVSWFAYWGQGTLVTVSS VL: ELVVTQEPSLTVSPGGTVTLTCRSSTGAVTTSNYANWVQQKPGQAPRGLIGGTNKRAPGTPARFSGSLLGGKAALTLSGVQPEDEAEYYCALWYSNLWVFGGGTKLTVLR | ~0.03 mg/L | 11.1 | 1.83 nM | 0.0124 s⁻¹ | 6.76e+06 M⁻¹ s⁻¹ | ~0.4 mg/L |  |  |
| Cross310 (antibody, human IgG1, kappa, V domains shown) VH: EVQLLESGGGLVQPGGSLKLSCAASGFTFNTYAMNWVRQAPGKGLEWVARIRSKYNNYATYYADSVKDRFTISRDDSKNTAYLQMNNLKTEDTAVYYCVRHGNFGNYYVSWFAYWGQGTLVTVSS VL: ELVVTQEPSLTVSPGGTVTLTCRSSTGAVTTSNYANWVQQKPGQAPRGLIGGTNKRAPGTPARFSGSLLGGKAALTLSGVQPEDEAEYYCALWYSNLWVFGGGTKLTVLR | ~0.03 mg/L | 16.8 | 2.77 nM | 0.00613 s⁻¹ | 2.22e+06 M⁻¹ s⁻¹ | ~0.3 mg/L |  |  |
| Cross317×PDL1 (bispecific antibody, human IgG1, kappa, L234A L235A) scFv: not shown heavy: QVQLVQSGAEVKKPGASVKVSCKASGYSFTGYYMHWVRQAPGQGLEWIGRINPYNGATTYSQNFKDRATMTVDTSISTAYMELSRLRSDDTAVYYCVPTGMGYFLMDYWGQGTLVTVSSASTKGPSVFPLAPSSKSTSGGTAALGCLVKDYFPEPVTVSWNSGALTSGVHTFPAVLQSSGLYSLSSVVTVPSSSLGTQTYICNVNHKPSNTKVDKKVEPKSCDKTHTCPPCPAPEAAGGPSVFLFPPKPKDTLMISRTPEVTCVVVDVSHEDPEVKFNWYVDGVEVHNAKTKPREEQYNSTYRVVSVLTVLHQDWLNGKEYKCKVSNKALPAPIEKTISKAKGQPREPQVCTLPPSREEMTKNQVSLSCAVKGFYPSDIAVEWESNGQPENNYKTTPPVLDSDGSFFLVSKLTVDKSRWQQGNVFSCSVMHEALHNHYTQKSLSLSPGK light: DIQLTQSPSFLSASVGDRVTITCKASQDVGSAVVWYQQKPGKAPKLLIYWASTRHTGVPSRFSGSGSGTEFTLTISSLQPEDFATYFCQQFTSYPTFGQGTKLEIKRTVAAPSVFIFPPSDEQLKSGTASVVCLLNNFYPREAKVQWKVDNALQSGNSQESVTEQDSKDSTYSLSSTLTLSKADYEKHKVYACEVTHQGLSSPVTKSFNRGEC |  |  |  |  |  |  | ~1 mg/L | ~0.2 mg/L |
